Source: patent US11833164B2, “Methods of treating Fabry disease in patients having a mutation in the GLA gene” (Amicus Therapeutics, Inc., priority 2019, dated 2023)
Changes are numbered by the printed parent chain. Numbers in names are those of the source.

B1: N298T (protein)
chain: MQLRNPELHLGCALALRFLALVSWDIPGARALDNGLARTPTMGWLHWERFMCNLDCQEEPDSCISEKLFMEMAELMVSEGWKDAGYEYLCIDDCWMAPQRDSEGRLQADPQRFPHGIRQLANYVHSKGLKLGIYADVGNKTCAGFPGSFGYYDIDAQTFADWGVDLLKFDGCYCDSLENLADGYKHMSLALNRTGRSIVYSCEWPLYMWPFQKPNYTEIRQYCNHWRNFADIDDSWKSIKSILDWTSFNQERIVDVAGPGGWNDPDMLVIGNFGLSWNQQVTQMALWAIMAAPLFMSTDLRHISPQAKALLQDKDVIAINQDPLGKQGYQLRQGDNFEVWERPLSGLAWAVAMINRQEIGGPRSYTIAVASLGKGVACNPACFITQLLPVKRKLGFYEWTSRLRSHINPTGTVLLQLENTMQMSLKDLL
B2: H302D (protein)
chain: B1 chain with T298N, H302D
B3: Q306E (protein)
chain: B1 chain with T298N, Q306E
B4: L300V (protein)
chain: B1 chain with T298N, L300V
B5: A307S (protein)
chain: B1 chain with T298N, A307S
B6: L300I (protein)
chain: B1 chain with T298N, L300I
B7: D299N (protein)
chain: B1 chain with T298N, D299N
B8: D299H (protein)
chain: B1 chain with T298N, D299H
B9: A307D (protein)
chain: B1 chain with T298N, A307D
B10: Q306L (protein)
chain: B1 chain with T298N, Q306L
B11: I303S (protein)
chain: B1 chain with T298N, I303S
B12: A307P (protein)
chain: B1 chain with T298N, A307P
B13: H302N (protein)
chain: B1 chain with T298N, H302N
B14: A307G (protein)
chain: B1 chain with T298N, A307G
B15: Q306P (protein)
chain: B1 chain with T298N, Q306P
B16: H302Y (protein)
chain: B1 chain with T298N, H302Y
B17: H302L (protein)
chain: B1 chain with T298N, H302L
B18: S304I (protein)
chain: B1 chain with T298N, S304I

Tested on: mutant form of α-Gal A expressed in HEK-293 cells
Assay: HEK assay (GLP HEK / Migalastat Amenability Assay): α-Gal A activity in lysates of transiently transfected HEK-293 cells incubated with or without 10 μM migalastat
Assay type: cell-based, human
Settings: for Absolute increase (% WT) / Relative increase: 10 μM migalastat versus baseline; for Baseline α-Gal A activity (% WT): absence of migalastat; for Baseline α-Gal A activity (% WT) / 10 μM migalastat α-Gal A activity (% WT): percentage of baseline wild-type α-Gal A activity; for 10 μM migalastat α-Gal A activity: incubated 5 days with 10 μM migalastat; for 10 μM migalastat α-Gal A activity (% WT): with 10 μM migalastat, 5 days
In short: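 Activity reported as 4-MU released (nmol/mg/hr), mean±SEM, from lysates of transiently transfected HEK-293 cells expressing mutant α-Gal A, cultured with or without 10 μM migalastat.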

[1] = lysates of HEK-293 cells transiently transfected with the mutant form, incubated 5 days in absence of migalastat, mean ± SEM
[2] = lysates of HEK-293 cells transiently transfected with the mutant form, mean ± SEM

Molecule	Absolute increase (% WT)	Relative increase	Baseline α-Gal A activity (% WT) (mean ± SEM)	Baseline α-Gal A activity [1]	10 μM migalastat α-Gal A activity [2]	10 μM migalastat α-Gal A activity (% WT) (mean ± SEM)	Baseline α-Gal A activity (nmol/mg/hr) [1]
B1	14.2 % WT	1.2	61.2 ± 4.7 % WT	20581 ± 1736 nmol/mg/h	25249 ± 1705 nmol/mg/h	75.4 ± 4.3 % WT	–
B2	25.8 % WT	1.3	95.1 ± 5.8 % WT	32677 ± 1437 nmol/mg/h	41716 ± 1847 nmol/mg/h	120.8 ± 6.6 % WT	–
B3	19.7 % WT	1.2	82 ± 2.8 % WT	31745 ± 2212 nmol/mg/h	39019 ± 2405 nmol/mg/h	101.7 ± 4.2 % WT	–
B4	14.0 % WT	13.2	1.3 ± 0.2 % WT	406 ± 48 nmol/mg/h	5354 ± 203 nmol/mg/h	15.3 ± 0.6 % WT	–
B5	27.7 % WT	1.3	85.9 ± 4.5 % WT	29300 ± 2037 nmol/mg/h	38558 ± 2274 nmol/mg/h	113.6 ± 5.2 % WT	–
B6	34.4 % WT	2.6	20.7 ± 0.9 % WT	7328 ± 448 nmol/mg/h	19317 ± 757 nmol/mg/h	55.1 ± 2 % WT	–
B7	7.8 % WT	1.2	29.2 ± 4.7 % WT	11973 ± 1961 nmol/mg/h	14668 ± 809 nmol/mg/h	37.1 ± 2.9 % WT	–
B8	22.1 % WT	23.5	1 ± 0.1 % WT	358 ± 36 nmol/mg/h	8424 ± 875 nmol/mg/h	23.1 ± 2.4 % WT	–
B9	35.9 % WT	1.3	126 ± 5.7 % WT	42522 ± 2430 nmol/mg/h	54502 ± 3031 nmol/mg/h	161.9 ± 8.6 % WT	–
B10	19.6 % WT	1.3	56.9 ± 4 % WT	19792 ± 1899 nmol/mg/h	26515 ± 1960 nmol/mg/h	76.4 ± 3.4 % WT	–
B11	3.8 % WT	–	–	–	1496 ± 117 nmol/mg/h	3.8 ± 0.3 % WT	BLD (“BLD” indicates that the mean α-Gal A activity was below the limit of detection (<142 nmol/mg/hr))
B12	12.3 % WT	1.4	32.8 ± 1.7 % WT	11388 ± 905 nmol/mg/h	15572 ± 1124 nmol/mg/h	45.2 ± 2.1 % WT	–
B13	30.2 % WT	1.3	91.2 ± 4.3 % WT	31958 ± 1777 nmol/mg/h	42296 ± 2028 nmol/mg/h	121.4 ± 6.2 % WT	–
B14	23.4 % WT	1.5	52.9 ± 2.5 % WT	17871 ± 1029 nmol/mg/h	26053 ± 1631 nmol/mg/h	76.3 ± 3.1 % WT	–
B15	30.0 % WT	1.5	57.4 ± 2.8 % WT	19933 ± 1648 nmol/mg/h	29495 ± 1671 nmol/mg/h	87.5 ± 4.8 % WT	–
B16	25.3 % WT	1.4	59 ± 3.5 % WT	22554 ± 1372 nmol/mg/h	31688 ± 1241 nmol/mg/h	84.2 ± 5.2 % WT	–
B17	24.6 % WT	1.4	60.7 ± 5.1 % WT	24188 ± 1797 nmol/mg/h	34251 ± 1760 nmol/mg/h	85.3 ± 4.7 % WT	–
B18	13.9 % WT	1.5	30.6 ± 1.4 % WT	11675 ± 939 nmol/mg/h	17257 ± 1837 nmol/mg/h	44.6 ± 2.4 % WT	–
